The source of these data is patent US20250262210A1 (TRUSTEES OF COLUMBIA UNIVERSITY IN THE CITY OF NEW YORK, published 2025).

One assay concerns the target T1, CTDP1 (human, UniProt Q9Y5B0 1-961, limits assumed).
T1 sequence (looked up): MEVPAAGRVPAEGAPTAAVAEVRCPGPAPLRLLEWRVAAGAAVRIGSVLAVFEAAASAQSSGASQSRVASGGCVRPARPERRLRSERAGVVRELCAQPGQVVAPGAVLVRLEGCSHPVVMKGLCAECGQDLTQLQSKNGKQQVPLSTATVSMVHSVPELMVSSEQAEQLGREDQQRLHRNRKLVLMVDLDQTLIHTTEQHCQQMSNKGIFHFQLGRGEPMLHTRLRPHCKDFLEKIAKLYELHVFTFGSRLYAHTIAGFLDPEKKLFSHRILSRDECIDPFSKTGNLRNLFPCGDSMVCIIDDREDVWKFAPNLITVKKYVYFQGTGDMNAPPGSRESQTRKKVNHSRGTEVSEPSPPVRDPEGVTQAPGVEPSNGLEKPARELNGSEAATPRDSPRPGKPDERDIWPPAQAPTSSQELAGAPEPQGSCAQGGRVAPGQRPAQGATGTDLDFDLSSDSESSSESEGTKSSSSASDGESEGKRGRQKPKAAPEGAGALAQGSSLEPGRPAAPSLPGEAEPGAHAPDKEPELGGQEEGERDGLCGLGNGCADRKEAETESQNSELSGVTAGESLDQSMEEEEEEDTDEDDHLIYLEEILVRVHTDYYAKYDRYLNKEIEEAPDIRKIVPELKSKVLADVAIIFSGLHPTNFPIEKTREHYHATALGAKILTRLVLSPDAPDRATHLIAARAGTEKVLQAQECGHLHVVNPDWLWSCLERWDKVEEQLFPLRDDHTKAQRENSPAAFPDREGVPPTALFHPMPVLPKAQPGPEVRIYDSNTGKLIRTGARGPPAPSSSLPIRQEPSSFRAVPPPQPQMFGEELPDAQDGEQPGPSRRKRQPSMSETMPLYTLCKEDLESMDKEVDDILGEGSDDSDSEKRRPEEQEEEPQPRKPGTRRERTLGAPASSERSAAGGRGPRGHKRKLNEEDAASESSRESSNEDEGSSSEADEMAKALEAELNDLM
As to the kind of experiment: IP/MS, LZTR1 R810W-FLAG, U87. The procedure, abridged: (§1)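 Read-out: spectral counts from LC-MS/MS (Orbitrap Fusion) after MaxQuant identification. Variable modifications were Met oxidation, protein N-terminal acetylation and N/Q deamidation.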

In a further assay the target is T2, SEC24D (human, UniProt O94855 1-1032, limits assumed).
T2 sequence (looked up): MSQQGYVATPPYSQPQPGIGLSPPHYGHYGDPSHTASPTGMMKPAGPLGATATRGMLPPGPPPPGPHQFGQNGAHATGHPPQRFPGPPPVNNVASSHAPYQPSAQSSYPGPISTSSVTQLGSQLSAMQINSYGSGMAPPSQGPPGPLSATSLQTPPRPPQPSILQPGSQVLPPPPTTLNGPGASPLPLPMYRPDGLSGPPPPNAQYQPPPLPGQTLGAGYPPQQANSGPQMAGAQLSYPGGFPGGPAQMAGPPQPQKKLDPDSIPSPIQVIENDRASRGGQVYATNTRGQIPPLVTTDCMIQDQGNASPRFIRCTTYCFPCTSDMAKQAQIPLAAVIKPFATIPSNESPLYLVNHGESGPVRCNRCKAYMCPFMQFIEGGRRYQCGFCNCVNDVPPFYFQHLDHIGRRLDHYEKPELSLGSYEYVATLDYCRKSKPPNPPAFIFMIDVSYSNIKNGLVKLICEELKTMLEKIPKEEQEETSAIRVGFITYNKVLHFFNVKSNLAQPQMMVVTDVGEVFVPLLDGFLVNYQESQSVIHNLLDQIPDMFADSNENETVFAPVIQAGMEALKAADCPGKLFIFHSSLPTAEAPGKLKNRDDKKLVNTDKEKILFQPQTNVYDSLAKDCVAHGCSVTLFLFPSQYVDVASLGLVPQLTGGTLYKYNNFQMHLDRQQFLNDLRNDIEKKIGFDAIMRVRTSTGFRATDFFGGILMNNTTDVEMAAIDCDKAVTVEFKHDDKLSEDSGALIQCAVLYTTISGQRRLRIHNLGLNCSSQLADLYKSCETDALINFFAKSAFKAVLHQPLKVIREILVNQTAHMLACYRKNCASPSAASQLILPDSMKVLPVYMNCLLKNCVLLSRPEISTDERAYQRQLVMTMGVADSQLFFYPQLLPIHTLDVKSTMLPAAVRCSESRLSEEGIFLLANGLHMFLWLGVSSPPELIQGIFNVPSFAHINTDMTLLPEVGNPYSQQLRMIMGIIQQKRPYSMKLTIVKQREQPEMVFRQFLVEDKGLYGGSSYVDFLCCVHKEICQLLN
As to the kind of experiment: IP/MS, LZTR1 R810W-FLAG, U87. The procedure, abridged: as §1

B1: LZTR1 R810W-FLAG (other, human, UniProt Q8N653 1-840, looked up)
chain: MAGPGSTGGQIGAAALAGGARSKVAPSVDFDHSCSDSVEYLTLNFGPFETVHRWRRLPPCDEFVGARRSKHTVVAYKDAIYVFGGDNGKTMLNDLLRFDVKDCSWCRAFTTGTPPAPRYHHSAVVYGSSMFVFGGYTGDIYSNSNLKNKNDLFEYKFATGQWTEWKIEGRLPVARSAHGATVYSDKLWIFAGYDGNARLNDMWTIGLQDRELTCWEEVAQSGEIPPSCCNFPVAVCRDKMFVFSGQSGAKITNNLFQFEFKDKTWTRIPTEHLLRGSPPPPQRRYGHTMVAFDRHLYVFGGAADNTLPNELHCYDVDFQTWEVVQPSSDSEVGGAEVPERACASEEVPTLTYEERVGFKKSRDVFGLDFGTTSAKQPTQPASELPSGRLFHAAAVISDAMYIFGGTVDNNIRSGEMYRFQFSCYPKCTLHEDYGRLWESRQFCDVEFVLGEKEECVQGHVAIVTARSRWLRRKITQARERLAQKLEQEAAPVPREAPGVAAGGARPPLLHVAIREAEARPFEVLMQFLYTDKIKYPRKGHVEDVLLIMDVYKLALSFQLCRLEQLCRQYIEASVDLQNVLVVCESAARLQLSQLKEHCLNFVVKESHFNQVIMMKEFERLSSPLIVEIVRRKQQPPPRTPLDQPVDIGTSLIQDMKAYLEGAGAEFCDITLLLDGHPRPAHKAILAARSSYFEAMFRSFMPEDGQVNISIGEMVPSRQAFESMLRYIYYGEVNMPPEDSLYLFAAPYYYGFYNNRLQAYCKQNLEMNVTVQNVLQILEAADKTQALDMKRHCLHIIVHQFTKVSKLPTLWSLSQQLLLDIIDSLASHISDKQCAELGADI
notes: Stably expressed in U87 cells by lentivirus; also called LZTR1-FLAG-R810W; LZTR1 RW; not shown: FLAG tag
As to B1, the binding result in the assay with CTDP1 and with SEC24D was “binds” in each case.
